The values below come from patent publication US20240425567A1.

The target of test [1] is antigen of the binding ELISA (not given). Description: binding ELISA relative to reference standard; 25 C upright, initial. In general terms: In an ELISA, binding on a coated surface is turned into a signal by an enzyme label.
Test [2] shares this target. Description: binding ELISA relative to reference standard; 25 C inverted, initial.
Test [3] shares this target. Description: binding ELISA relative to reference standard; 2 to 8 C inverted, 12 months.
The target is the same in test [4]. The experiment in a line: binding ELISA relative to reference standard; 40 C inverted, 0.5 month.
Test [5] has the same target. The experiment in a line: binding ELISA relative to reference standard; 2 to 8 C inverted, 6 months.
Test [6] has the same target. The experiment in a line: binding ELISA relative to reference standard; 2 to 8 C upright, initial.
Test [7] has the same target. Description: binding ELISA relative to reference standard; 40 C inverted, 1 month.
Test [8] has the same target. The experiment in a line: binding ELISA relative to reference standard; 25 C inverted, 3 months.
Test [9] shares this target. Description: binding ELISA relative to reference standard; 25 C inverted, 1 month.
Test [10] has the same target. The experiment in a line: binding ELISA relative to reference standard; 2 to 8 C inverted, initial.
For test [11] the target is unchanged. Description: binding ELISA relative to reference standard; 25 C inverted, 2 months.
For test [12] the target is unchanged. Description: binding ELISA relative to reference standard; 25 C inverted, 0.5 month.
Test [13] has the same target. Description: binding ELISA relative to reference standard; 25 C upright, 6 months.
The target is the same in test [14]. The experiment in a line: binding ELISA relative to reference standard; 40 C inverted, initial.
The target is the same in test [15]. Description: binding ELISA relative to reference standard; 2 to 8 C inverted, 1 month.
For test [16] the target is unchanged. The experiment in a line: binding ELISA relative to reference standard; 2 to 8 C inverted, 3 months.

B1: ADI-58125 (antibody, human IgG1, lambda, V domains shown)
VH: EVQLVESGGGLVKPGGSLRLSCAASGFTFSSYYMNWVRQAPGKGLEWVSSISEDGYSTYYPDSLKGRFTISRDSAKNSLYLQMNSLRADDTAVYYCARDFSGHTAWAGTGFEYWGQGTLVTVSS
VL: QSVLTQPPSVSGAPGQRITISCTGSSSNIGAGYDVHWYQQLPGTAPKLLIYGSSSRNSGVPDRFSGSKSGTSASLAITGLQAEDEADYYCQSYDSSLSVLYTFGTGTKVTVLG
Regarding B1, the Binding ELISA, % of reference standard activity (% of reference standard activity) amounted to 114 in test [1]; 114 in [2]; 93 in [3]; 99 in test [4]; 108 in test [5]; 114 in test [6]. Besides, the Binding ELISA, % of reference standard activity (% of reference standard activity) in test [7] amounted to 94; in test [8], 94; in [9] it was 102; in test [10], 114; in [11] it was 111; in [12] it was 109. In addition, the Binding ELISA, % of reference standard activity (% of reference standard activity) in [13] was 91; in test [14] it was 114; in test [15] it was 101; in test [16], 111. Also, the Binding ELISA, Reference Standard activity % (% of reference standard activity) was 114 in test [1]; 114 in [2]; 99 in test [4]; 94 in test [7]; 102 in [9]; 111 in test [11]. Besides, the Binding ELISA, Reference Standard activity % (% of reference standard activity) in test [12] was found to be 109; in [14], 114.
